Results from patent publication US7135303B2, “Regulators of type-1 tumor necrosis factor receptor and other cytokine receptor shedding” (The United States of America as represented by the …, priority 2000, dated 2006).

What was measured:
Test in all cases: ARTS-1 aminopeptidase activity assay (amide bond hydrolysis of amino acid p-nitroanilide substrates, absorbance at 380 nm)
Format in all cases: biochemical, human
Conditions in all cases: other: aa-pNA substrate with GST-ARTS-1; Lineweaver-Burk
[1] = substrate: CC[C@H](C)[C@H](N)C(=O)Nc1ccc([N+](=O)[O-])cc1
Procedure: (§1) To accomplish this, commercially available amino acid p-nitroanilide substrates were incubated with purified GST-ARTS-1 fusion protein for 1 hour under conditions of linear enzyme activity over time. The rate of amide bond hydrolysis was determined by measuring the absorbance of the p-nitroaniline aminopeptidase reaction product at 380 nm. Each experimental point was run in triplicate and each determination utilized six concentrations of amino acid p-nitroanilide substrate. Kinetic constants were determined by Lineweaver-Burk analysis. Correlation coefficients for each line generated were greater than 0.997. Each amino acid p-nitroaniline substrate tested is shown in the left colurnr, along with its polar/non-polar/acidic/basic nature. Vmax is a measure of the theoretical enzyme maximal velocity, Km is the Michaelis-Menten constant for each ARTS-1/substrate combination, kcat is the first order rate constant (i.e., the turnover number) for the ARTS-1/substrate combination, and kcat/Km is the second order rate constant for the ARTS-1/substrate combination (i.e., a measure of overall catalytic efficiency).
(§2) Aminopeptidase activity of the recombinant GST-ARTS-1 fusion protein was assessed by determination of the rate of amide bond hydrolysis of amino acid p-nitroanilide substrates (Bachem). Amino acid p-nitroanilides (final concentrations 0.25 to 8 mM) were incubated at room temperature with 24 pmoles of GST-ARTS-1 fusion protein in 200 μl of 50 mM Tris, pH 7.5 for 1 hour. Reactions were terminated by addition of 280 μl of 3M sodium acetate (pH 5.2). The rate of amide bond hydrolysis was determined by measuring the absorbance of p-nitroaniline at 380 nm (See, Table 3, supra). Spontaneous hydrolysis of the substrate was corrected for by subtracting the absorbance of control incubations which were terminated immediately. Kinetic constants were determined by Lineweaver-Burk analysis. Each experimental point was assayed in triplicate and each determination utilized six concentrations of each amino acid p-nitroanilide substrate. Correlation coefficients for each line generated were greater than 0.997.

[2] = substrate: NCC(=O)Nc1ccc([N+](=O)[O-])cc1
Procedure: as §1, §2

[3] = substrate: N[C@@H](Cc1ccccc1)C(=O)Nc1ccc([N+](=O)[O-])cc1
Procedure: as §1, §2

B1: recombinant GST-ARTS-1 fusion protein (Homo sapiens) (protein)
chain: SWCQSTEASPKRSDGTPFPWNKIRLPEYVIPVHYDLLIHANLTTLTFWGTTKVEITASQPTSTIILHSHHLQISRATLRKGAGERLSEEPLQVLEHPRQEQIALLAPEPLLVGLPYTVVIHYAGNLSETFHGFYKSTYRTKEGELRILASTQFEPTAARMAFPCFDEPAFKASFSIKIRREPRHLAISNMPLVKSVTVAEGLIEDHFDVTVKMSTYLVAFIISDFESVSKITKSGVKVSVYAVPDKINQADYALDAAVTLLEFYEDYFSIPYPLPKQDLAAIPDFQSGAMENWGLTTYRESALLFDAEKSSASSKLGITMTVAHELAHQWFGNLVTMEWWNDLWLNEGFAKFMEFVSVSVTHPELKVGDYFFGKCFDAMEVDALNSSHPVSTPVENPAQIREMFDDVSYDKGACILNMLREYLSADAFKSGIVQYLQKHSYKNTKNEDLWDSMASICPTDGVKGMDGFCSRSQHSSSSSHWHQEGVDVKTMMNTWTLQKGFPLITITVRGRNVHMKQEHYMKGSDGAPDTGYLWHVPLTFITSKSDMVHRFLLKTKTDVLILPEEVEWIKFNVGMNGYYIVHYEDDGWDSLTGLLKGTHTAVSSNDRASLINNAFQLVSIGKLSIEKALDLSLYLKHETEIMPVFQGLNELIPMYKLMEKRDMNEVETQFKAFLIRLLRDLIDKQTWTDEGSVSERMLRSQLLLLACVHNYQPCVQRAEGYFRKWKESNGNLSLPVDVTLAVFAVGAQSTEGWDFLYSKYQFSLSSTEKSQIEFALCRTQNKEKLQWLLDESFKGDKIKTQEFPQILTLIGRNPVGYPLAWQFLRKNWNKLVQKFELGSSSIAHMVMGTTNQFSTRTRLEEVKGFFSSLKENGSQLRCVQQTIETIEENIGWMDKNFDKIRVWLQSEKLERM
notes: ARTS-1 extracellular domain (i.e., the ectodomain; amino acids 30–941) was PCR amplified; made in house
Km [1]: 1670 ± 20 µM | kcat [1]: 0.0968 ± 0.0015 s⁻¹ | kcat/Km [1]: 58 M⁻¹ s⁻¹ | Km [2]: 3670 ± 30 µM | kcat [2]: 0.1445 ± 0.0008 s⁻¹ | kcat/Km [2]: 39.4 M⁻¹ s⁻¹ | Km [3]: 1660 ± 30 µM | kcat [3]: 0.0857 ± 0.0006 s⁻¹ | kcat/Km [3]: 51.6 M⁻¹ s⁻¹
